B1: ^C98RhuA-HisTag (enzyme)
chain: MQNITQSWFVQGMIKATTDAWLKGWDERNGGNLTLRLDDADIAPYHDNFHQQPRYIPLSQPMPLLANTPFIVTGSGKFFRNVQLDPAANLGIVKVDSCGAGYHILWGLTNEAVPTSELPAHFLSHSERIKATNGKDRVIMHCHATNLIALTYVLENDTAVFTRQLWEGSTECLVVFPDGVGILPWMVPGTDAIGQATAQEMQKHSLVLWPFHGVFGSGPTLDETFGLIDTAEKSAQVLVKVYSMGGMKQTISREELIALGKRFGVTPLASALALGSGSGHHHHHH
notes: also called RhuA-C98-HisTag; C98-His tagged RhuA mutant
B2: ^C98RhuA-Pd4 (enzyme)
chain: MQNITQSWFVQGMIKATTDAWLKGWDERNGGNLTLRLDDADIAPYHDNFHQQPRYIPLSQPMPLLANTPFIVTGSGKFFRNVQLDPAANLGIVKVDSCGAGYHILWGLTNEAVPTSELPAHFLSHSERIKATNGKDRVIMHCHATNLIALTYVLENDTAVFTRQLWEGSTECLVVFPDGVGILPWMVPGTDAIGQATAQEMQKHSLVLWPFHGVFGSGPTLDETFGLIDTAEKSAQVLVKVYSMGGMKQTISREELIALGKRFGVTPLASALALGSGSGTSNAVHPTLRHL
notes: also called C98-RhuA-Pd4 mutant
B3: ^C98RhuA (L-rhamnulose-1-phosphate aldolase variant D98C/C126S/E192A) (enzyme)
chain: MQNITQSWFVQGMIKATTDAWLKGWDERNGGNLTLRLDDADIAPYHDNFHQQPRYIPLSQPMPLLANTPFIVTGSGKFFRNVQLDPAANLGIVKVDSCGAGYHILWGLTNEAVPTSELPAHFLSHSERIKATNGKDRVIMHCHATNLIALTYVLENDTAVFTRQLWEGSTECLVVFPDGVGILPWMVPGTDAIGQATAQEMQKHSLVLWPFHGVFGSGPTLDETFGLIDTAEKSAQVLVKVYSMGGMKQTISREELIALGKRFGVTPLASALAL
notes: C4 symmetric homotetramer (4 x 274 residues); Tetramers link to each other through single C98-C98 disulfide bonds at the corners; also called RhuA-C98; Rhu-C98
B4: ^C133RhuA (enzyme)
chain: MQNITQSWFVQGMIKATTDAWLKGWDERNGGNLTLRLDDADIAPYHDNFHQQPRYIPLSQPMPLLANTPFIVTGSGKFFRNVQLDPAANLGIVKVDSDGAGYHILWGLTNEAVPTSELPAHFLSHSERIKATCGKDRVIMHCHATNLIALTYVLENDTAVFTRQLWEGSTECLVVFPDGVGILPWMVPGTDAIGQATAQEMQKHSLVLWPFHGVFGSGPTLDETFGLIDTAEKSAQVLVKVYSMGGMKQTISREELIALGKRFGVTPLASALAL
notes: Surface cysteine lies on the sides of the tetramer; also called RhuA-C133
B5: ^C266RhuA (enzyme)
chain: MQNITQSWFVQGMIKATTDAWLKGWDERNGGNLTLRLDDADIAPYHDNFHQQPRYIPLSQPMPLLANTPFIVTGSGKFFRNVQLDPAANLGIVKVDSDGAGYHILWGLTNEAVPTSELPAHFLSHSERIKATNGKDRVIMHCHATNLIALTYVLENDTAVFTRQLWEGSTECLVVFPDGVGILPWMVPGTDAIGQATAQEMQKHSLVLWPFHGVFGSGPTLDETFGLIDTAEKSAQVLVKVYSMGGMKQTISREELIALGKRFGVCPLASALAL
notes: Surface cysteine lies on the sides of the tetramer; also called RhuA-C266
B6: ^C98RhuA-ACP (enzyme)
chain: MQNITQSWFVQGMIKATTDAWLKGWDERNGGNLTLRLDDADIAPYHDNFHQQPRYIPLSQPMPLLANTPFIVTGSGKFFRNVQLDPAANLGIVKVDSCGAGYHILWGLTNEAVPTSELPAHFLSHSERIKATNGKDRVIMHCHATNLIALTYVLENDTAVFTRQLWEGSTECLVVFPDGVGILPWMVPGTDAIGQATAQEMQKHSLVLWPFHGVFGSGPTLDETFGLIDTAEKSAQVLVKVYSMGGMKQTISREELIALGKRFGVTPLASALALGSGSGSTIEERVKKIIGEQLGVKQEEVTNNASFVEDLGADSLDTVELVMALEEEFDTEIPDEEAEKITTVQAAIDYINGHQA

Experiments:
self-assembly, TEM = biological target: the molecule itself; assay: self-assembly, TEM
[1] = biological target: the molecule itself; assay: disulfide-mediated self-assembly
[2] = biological target: the molecule itself; assay: oxidative self-assembly conditions; TEM

Protein	binding result (self-assembly, TEM)	binding result [2]	further results
B1	binds		
B2	binds		
B3			binding result [1]: binds
B4		binds	
B5		binds	
B6	binds		
